For two molecules, Kd results are on record in paper PMC13722417 (2026).

Sequences and labels used below:
B1: TIE1 21-760 (protein)
chain: AAVDLTLLANLRLTDPQRFFLTCVSGEAGAGRGSDAWGPPLLLEKDDRIVRTPPGPPLRLARNGSHQVTLRGFSKPSDLVGVFSCVGGAGARRTRVIYVHNSPGAHLLPDKVTHTVNKGDTAVLSARVHKEKQTDVIWKSNGSYFYTLDWHEAQDGRFLLQLPNVQPPSSGIYSATYLEASPLGSAFFRLIVRGCGAGRWGPGCTKECPGCLHGGVCHDHDGECVCPPGFTGTRCEQACREGRFGQSCQEQCPGISGCRGLTFCLPDPYGCSCGSGWRGSQCQEACAPGHFGADCRLQCQCQNGGTCDRFSGCVCPSGWHGVHCEKSDRIPQILNMASELEFNLETMPRINCAAAGNPFPVRGSIELRKPDGTVLLSTKAIVEPEKTTAEFEVPRLVLADSGFWECRVSTSGGQDSRRFKVNVKVPPVPLAAPRLLTKQSRQLVVSPLVSFSGDGPISTVRLHYRPQDSTMDWSTIVVDPSENVTLMNLRPKTGYSVRVQLSRPGEGGEGAWGPPTLMTTDCPEPLLQPWLEGWHVEGTDRLRVSWSLPLVPGPLVGDGFLLRLWDGTRGQERRENVSSPQARTALLTGLTPGTHYQLDVQLYHCTLLGPASPPAHVLLPPSGPPAPRHLHAQALSDSEIQLTWKHPEALPGPISKYVVEVQVAGGAGDPLWIDVDRPEETSTIIRGLNASTRYLFRMRASIQGLGDWSNTVEESTLGNGLQAEGPVQESRAAEEGLDQQ
B2: SVEP1 2261-2890 (protein)
chain: PLDCGKPPPIQNGFMKGENFEVGSKVQFFCNEGYELVGDSSWTCQKSGKWNKKSNPKCMPAKCPEPPLLENQLVLKELTTEVGVVTFSCKEGHVLQGPSVLKCLPSQQWNDSFPVCKIVLCTPPPLISFGVPIPSSALHFGSTVKYSCVGGFFLRGNSTTLCQPDGTWSSPLPECVPVECPQPEEIPNGIIDVQGLAYLSTALYTCKPGFELVGNTTTLCGENGHWLGGKPTCKAIECLKPKEILNGKFSYTDLHYGQTVTYSCNRGFRLEGPSALTCLETGDWDVDAPSCNAIHCDSPQPIENGFVEGADYSYGAIIIYSCFPGFQVAGHAMQTCEESGWSSSIPTCMPIDCGLPPHIDFGDCTKLKDDQGYFEQEDDMMEVPYVTPHPPYHLGAVAKTWENTKESPATHSSNFLYGTMVSYTCNPGYELLGNPVLICQEDGTWNGSAPSCISIECDLPTAPENGFLRFTETSMGSAVQYSCKPGHILAGSDLRLCLENRKWSGASPRCEAISCKKPNPVMNGSIKGSNYTYLSTLYYECDPGYVLNGTERRTCQDDKNWDEDEPICIPVDCSSPPVSANGQVRGDEYTFQKEIEYTCNEGFLLEGARSRVCLANGSWSGATPDCVPVR

For assay [1], the target named is SVEP1 919-3571 (Homo sapiens, UniProt Q4LDE5, ANG1 present). Description: ELISA.
The target of assay [2] is SVEP1 919-3571 (Homo sapiens, UniProt Q4LDE5, ANG2 present). As to the kind of experiment: ELISA.
Assay [3] addresses SVEP1 919-3571 (Homo sapiens, UniProt Q4LDE5). As to the kind of experiment: ELISA.
In the assay “TIE1 21-760” the target is B1. Description: SPR.

Values joined by “and” are separate entries in the source; they are usually repeats but may differ in a detail not shown here. Equal entries are not always repeated.

On to B1, for which the Kd with SVEP1 919-3571 [1] is 82.4 nM; in the assay with SVEP1 919-3571 [2], 55.6 nM; with SVEP1 919-3571 [3], 189 nM and 147 nM.
Consider B2, for which the Kd with TIE1 21-760 was 62.5 nM.
